Biological target: T1, Tag-xPSM (Homo sapiens, UniProt Q04609)
T1 construct: made in house; host or cells: Sf-9 insect cells infected with recombinant baculovirus; protein harvested from the media
Assay: Tag-xPSM phage display selection (agarose/cellulose), sequencing of selected phage
Assay type: binding
Protocol: 100 μl of S-protein agarose (2× in RPMI 1640+1% Fetal Bovine Serum (FBS) and 100 μl of CBind Resin (10 mg/ml in RPMI 1640+1% FBS) without fusion protein were used to negatively select the original phage display library. 2×10^11 plaque forming units (PFU) of 1.29×10^9 different sequence phage were incubated with each aliquot of resin for 1 hr at 37° C., while rotating. The S-tag agarose was pelleted and supernatant saved as the agarose counter-selected pool. The cellulose resin was transferred onto 200 μl of 9:1 dibutyl phthalate:cyclohexane and the resin pelleted through the organic phase. The aqueous supernatant was saved as the cellulose counter-selected pool. Each counter selected pool was then added to tag-xPSM agarose or cellulose resin and incubated for 1 hr at 37° C., while rotating. The tag-xPSM agarose was pelleted and washed three times in RPMI 1640+1% FBS. The agarose pellet was then saved for phage isolation. The Tag-xPSM cellulose was transferred onto 200 μl of 9:1 dibutyl phthalate:cyclohexane and the resin pelleted through the organic phase. The tube was then snap frozen in liquid nitrogen to isolate the resin pellet. Over 75% of Tag-xPSM remained bound to the cellulose resin through these conditions. The resulting phage-bound tag-xPSM agarose and tag-xPSM cellulose were then resuspended in 200 μl of log phage ER2738 cells and phage allowed to infect 1 hour at room temperature. A small aliquot was taken at this time to quantitate the number of phage bound per round of selection. The remaining PSMA bound phage was then amplified, tittered, and applied to the next round of phage display. There was only one counter-selection round, followed by a total of five positive selection rounds, applying between 10^10 to 10^11 PFU per round. The final round of selection included cross-selections, where selected phage pools from one PSMA background where applied to the other. Individual phage were isolated and sequenced from rounds three through five.
Individual phage plaques were amplified for 5 hours in ER2738 cells at 37° C. Amplified supernatant was incubated 1:1 with PEG/NaCl buffer (20% PEG 8000, 2.5 M NaCl) for 10 minutes at room temperature. Phage were microfuged 10 minutes at 20,000 g, 4° C. The phage pellet was suspended in 100 μl Iodide buffer (10 mM Tris-HCl, pH 8.0, 1 mM EDTA, 4M NaI). Single stranded DNA (ssDNA) was precipitated with 250 μl of 100% ethanol, pelleted, and washed in 70% ethanol. Each ssDNA pellet was suspended in 30 μl 10 mM Tris, pH 7.4. Each phage was sequenced using the Amersham DYE ET mix, by incubating 6 μl ssDNA, 1 μl of 5 μM-96 pill Sequencing Primer ([…]; SEQ ID NO:108), and 8 μl of DYE ET mix in a 96 well PCR plate and amplified by 30 cycles of 95° C. for 20 seconds, 50° C. for 15 seconds, and 60° C. for 1 minute. Sequencing reaction products were spun through G50-fine Sephadex column plates, prepared on Millipore-multiscreen plates. Products were sequenced and analyzed on the MegaBACE capillary sequencer. All sequences, minus the flanking cysteines, were aligned using the Baylor College of Medicine Clustal W1.8 Global Progressive Alignment (available online) with data presented by Boxshade 3.21 software (available online through the Swiss Institute for Bioinformatics).
2×10^11 plaque-forming units (PFU) of the library was incubated with each aliquot of resin for one hour at 37° C., while rotating. The S-tag agarose was pelleted and the supernatant saved as the agarose counter-selected pool. The cellulose resin was transferred onto a 9:1 ratio of dibutyl phthalate:cyclohexane and the resin centrifuged through the organic phase. The aqueous supernatant was saved as the cellulose counter-selected pool. Each counter selected pool was then added to tag-xPSM agarose or cellulose resin, respectively, and incubated for one hour at 37° C., while rotating (see FIG. 2). The Tag-xPSM agarose was pelleted, washed, and saved for phage isolation. […]

T1 sequence (Q04609 44-750 limits assumed): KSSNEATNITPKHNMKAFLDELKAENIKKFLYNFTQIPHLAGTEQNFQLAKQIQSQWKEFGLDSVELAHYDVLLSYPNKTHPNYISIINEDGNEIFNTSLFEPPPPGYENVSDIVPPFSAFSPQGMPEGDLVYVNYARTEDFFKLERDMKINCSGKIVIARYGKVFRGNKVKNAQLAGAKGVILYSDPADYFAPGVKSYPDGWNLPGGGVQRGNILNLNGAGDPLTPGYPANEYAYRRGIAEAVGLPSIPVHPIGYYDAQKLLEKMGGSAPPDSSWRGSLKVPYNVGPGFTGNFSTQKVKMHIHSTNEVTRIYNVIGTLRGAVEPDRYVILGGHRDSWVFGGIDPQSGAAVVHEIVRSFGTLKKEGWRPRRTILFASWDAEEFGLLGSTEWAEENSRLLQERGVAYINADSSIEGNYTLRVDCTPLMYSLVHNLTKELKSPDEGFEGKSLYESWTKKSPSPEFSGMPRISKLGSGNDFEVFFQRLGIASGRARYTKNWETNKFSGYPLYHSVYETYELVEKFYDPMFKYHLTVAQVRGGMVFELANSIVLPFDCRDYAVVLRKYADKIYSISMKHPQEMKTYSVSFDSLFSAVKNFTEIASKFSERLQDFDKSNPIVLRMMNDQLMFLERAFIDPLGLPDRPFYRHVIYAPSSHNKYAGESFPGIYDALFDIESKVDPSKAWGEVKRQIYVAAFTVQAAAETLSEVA

| Number of times sequence was found, Round 3 (Agarose) | Number of times sequence was found, Round 4 (Agarose) | Number of times sequence was found, Round 5 (Agarose) | Number of times sequence was found, Round 3 (Cellulose) | Number of times sequence was found, Round 4 (Cellulose) | Number of times sequence was found, Round 5 (Cellulose) | Sequence |
| --- | --- | --- | --- | --- | --- | --- |
| 0/0 | 1 | 0/0 | 0/0 | 0 | 0/0 | CAPNKYKHC [SEQ ID NO:11] |
| 0/0 | 0 | 0/0 | 0/0 | 1 | 0/0 | CDAVRYPVC [SEQ ID NO:20] |
| 1 | 0/0 | 0/0 | 0 | 0/0 | 0/0 | CFPQSSDRC [SEQ ID NO:24] |
| 0/0 | 0 | 0/0 | 0/0 | 1 | 0/0 | CGLPTRTAC [SEQ ID NO:16] |
| 0/0 | 0 | 0/0 | 0/0 | 1 | 0/0 | CHKFQSKMC [SEQ ID NO:17] |
| 0/0 | 0/0 | 0 | 0/0 | 0/0 | 1 | CHTKHASHC [SEQ ID NO:6] |
| 0/0 | 0 | 0/0 | 0/0 | 1 | 0/0 | CHTSLKTHC [SEQ ID NO:14] |
| 1 | 0/0 | 0/0 | 0 | 0/0 | 0/0 | CHTTTDVYC [SEQ ID NO:25] |
| 0/0 | 0 | 0/0 | 0/0 | 1 | 0/0 | CKHSVSPSC [SEQ ID NO:18] |
| 0/0 | 0/0 | 0 | 0/0 | 0/0 | 1 | CKPSMMSYC [SEQ ID NO:8] |
| 0/0 | 0 | 0/0 | 0/0 | 1 | 0/0 | CKPTNQHKC [SEQ ID NO:19] |
| 0/0 | 0 | 0/0 | 0/0 | 1 | 0/0 | CLKSHSHQC [SEQ ID NO:15] |
| 0 | 0/0 | 0/0 | 1 | 0/0 | 0/0 | CLSSNSSLC [SEQ ID NO:28] |
| 0/0 | 0 | 0/0 | 0/0 | 1 | 0/0 | CLSTTISYC [SEQ ID NO:21] |
| 0/0 | 0 | 0/0 | 0/0 | 1 | 0/0 | CNKSSLGTC [SEQ ID NO:13] |
| 1 | 0/0 | 0/0 | 0 | 0/0 | 0/0 | CPIMLSEPC [SEQ ID NO:26] |
| 0/0 | 0/0 | 0 | 0/0 | 0/0 | 1 | CPSVNTKQC [SEQ ID NO:9] |
| 1 | 0/0 | 0/0 | 0 | 0/0 | 0/0 | CQFRHSAQC [SEQ ID NO:23] |
| 0/0 | 0/0 | 0 | 0/0 | 0/0 | 1 | CQTPYDLRC [SEQ ID NO:10] |
| 0/0 | 0/0 | 0 | 0/0 | 0/0 | 1 | CSHNDTRHC [SEQ ID NO:4] |
| 0/0 | 0/0 | 0 | 0/0 | 0/0 | 1 | CSSHSTVHC [SEQ ID NO:7] |
| 0/0 | 0/0 | 0 | 0/0 | 0/0 | 1 | CSTRAPHLC [SEQ ID NO:5] |
| 0 | 3/3 | 0 | 1 | 3/3 | 3 | CTITSKRTC [SEQ ID NO:2] |
| 1 | 0/0 | 0/0 | 0 | 0/0 | 0/0 | CTNSNMHHC [SEQ ID NO:22] |
| 0/0 | 0 | 0/0 | 0/0 | 1 | 0/0 | CTPLSPRYC [SEQ ID NO:12] |

— patent US7749968B2, “Peptides for targeting the prostate specific membrane antigen” (The Johns Hopkins University, priority 2002, dated 2010)
